Assay results as given in article PMC10397247.
Read-outs that look alike come from different tables or passages of the source. Blank lines part the entries; values can stand above or below the binder they belong to.

Columns and labels:
4H56-AA = target: T1, 4H56-AA; test: two-hybrid library CCmax; settings: mean of both orientations;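 note: natural log of median RNA to DNA barcode read ratio; higher means stronger binding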
T1 chain: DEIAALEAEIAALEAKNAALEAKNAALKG

4H688-AA = target: T2, 4H688-AA; test: two-hybrid library CCmax; settings: mean of both orientations;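 note: natural log of median RNA to DNA barcode read ratio; higher means stronger binding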
T2 chain: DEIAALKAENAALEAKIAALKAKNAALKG

4H963-AA = target: T3, 4H963-AA; test: two-hybrid library CCmax; settings: mean of both orientations;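 note: natural log of median RNA to DNA barcode read ratio; higher means stronger binding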
T3 chain: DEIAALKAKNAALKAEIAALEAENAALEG

GCN2_T = test: two-hybrid library CCmax; settings: mean of both orientations;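 note: natural log of median RNA to DNA barcode read ratio; higher means stronger binding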
4H_APH = target: T4, 4H_APH; test: two-hybrid library CCmax; settings: mean of both orientations;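 note: natural log of median RNA to DNA barcode read ratio; higher means stronger binding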
T4 chain: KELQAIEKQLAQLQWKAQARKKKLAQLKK

4H3493-AA = target: T5, 4H3493-AA; test: two-hybrid library CCmax;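 note: natural log of median RNA to DNA barcode read ratio; higher means stronger binding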
T5 chain: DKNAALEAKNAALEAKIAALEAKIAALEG

4H376-AA = target: T6, 4H376-AA; test: two-hybrid library CCmax; settings: mean of both orientations
T6 chain: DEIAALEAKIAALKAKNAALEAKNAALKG

4H406-AA = target: T7, 4H406-AA; test: two-hybrid library CCmax; settings: mean of both orientations
T7 chain: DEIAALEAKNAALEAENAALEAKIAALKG

4H_BCR = target: T8, 4H_BCR; test: two-hybrid library CCmax; settings: mean of both orientations
T8 chain: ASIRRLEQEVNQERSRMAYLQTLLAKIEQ

4H_GCN4 = test: two-hybrid library CCmax
4H347-AA = target: T9, 4H347-AA; test: two-hybrid library CCmax
T9 chain: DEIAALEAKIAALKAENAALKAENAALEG

4H452-AA = target: T10, 4H452-AA; test: two-hybrid library CCmax; settings: mean of both orientations
T10 chain: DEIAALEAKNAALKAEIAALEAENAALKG

O9-bS = target: T11, O9-bS; test: two-hybrid library CCNG1
T11 chain: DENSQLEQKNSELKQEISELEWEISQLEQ

O7-bS = target: T12, O7-bS; test: two-hybrid library CCNG1
T12 chain: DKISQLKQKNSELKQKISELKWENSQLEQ

O6-bS = target: T13, O6-bS; test: two-hybrid library CCNG1
T13 chain: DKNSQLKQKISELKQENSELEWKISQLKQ

O8-bS = target: T14, O8-bS; test: two-hybrid library CCNG1
T14 chain: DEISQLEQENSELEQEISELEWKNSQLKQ

4H3410-AA = target: T15, 4H3410-AA; test: two-hybrid library CCmax; settings: mean of both orientations
T15 chain: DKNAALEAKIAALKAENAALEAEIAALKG

4H797-AA = target: T16, 4H797-AA; test: two-hybrid library CCmax; settings: mean of both orientations
T16 chain: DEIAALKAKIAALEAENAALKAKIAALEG

4H3865-AA = target: T17, 4H3865-AA; test: two-hybrid library CCmax; settings: mean of both orientations
T17 chain: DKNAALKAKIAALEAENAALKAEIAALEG

4H3395-AA = target: T18, 4H3395-AA; test: two-hybrid library CCmax; settings: mean of both orientations
T18 chain: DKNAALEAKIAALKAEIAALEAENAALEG

4H570-AA = target: T19, 4H570-AA; test: two-hybrid library CCmax; settings: mean of both orientations
T19 chain: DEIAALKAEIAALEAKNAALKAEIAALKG

4H458-AA = target: T20, 4H458-AA; test: two-hybrid library CCmax; settings: mean of both orientations
T20 chain: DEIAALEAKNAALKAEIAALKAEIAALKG

4H745-AA = target: T21, 4H745-AA; test: two-hybrid library CCmax; settings: mean of both orientations
T21 chain: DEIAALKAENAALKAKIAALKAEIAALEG

4H909-AA = target: T22, 4H909-AA; test: two-hybrid library CCmax; settings: mean of both orientations
T22 chain: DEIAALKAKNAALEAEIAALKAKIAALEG

4H891-AA = target: T23, 4H891-AA; test: two-hybrid library CCmax; settings: mean of both orientations
T23 chain: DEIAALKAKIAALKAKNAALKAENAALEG

4H629-AA = target: T24, 4H629-AA; test: two-hybrid library CCmax; settings: mean of both orientations
T24 chain: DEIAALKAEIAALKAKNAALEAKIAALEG

4H3697-AA = target: T25, 4H3697-AA; test: two-hybrid library CCmax; settings: mean of both orientations
T25 chain: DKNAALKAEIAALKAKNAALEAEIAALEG

4H850-AA = target: T26, 4H850-AA; test: two-hybrid library CCmax; settings: mean of both orientations
T26 chain: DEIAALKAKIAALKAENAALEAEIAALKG

4H710-AA = target: T27, 4H710-AA; test: two-hybrid library CCmax; settings: mean of both orientations
T27 chain: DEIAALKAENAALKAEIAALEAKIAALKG

4H3381-AA = target: T28, 4H3381-AA; test: two-hybrid library CCmax
T28 chain: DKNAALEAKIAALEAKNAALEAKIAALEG

4H485-AA = target: T29, 4H485-AA; test: two-hybrid library CCmax; settings: mean of both orientations
T29 chain: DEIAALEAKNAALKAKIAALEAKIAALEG

4H3590-AA = target: T30, 4H3590-AA; test: two-hybrid library CCmax; settings: mean of both orientations
T30 chain: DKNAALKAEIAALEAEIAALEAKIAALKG

4H536-AA = target: T31, 4H536-AA; test: two-hybrid library CCmax; settings: mean of both orientations
T31 chain: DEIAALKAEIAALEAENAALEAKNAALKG

4H930-AA = target: T32, 4H930-AA; test: two-hybrid library CCmax; settings: mean of both orientations
T32 chain: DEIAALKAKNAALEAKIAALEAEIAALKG

4H3753-AA = target: T33, 4H3753-AA; test: two-hybrid library CCmax; settings: mean of both orientations
T33 chain: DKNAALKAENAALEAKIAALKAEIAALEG

4H94-AA = target: T34, 4H94-AA; test: two-hybrid library CCmax; settings: mean of both orientations
T34 chain: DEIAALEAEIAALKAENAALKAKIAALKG

APC5531-AA = target: T35, APC5531-AA; test: two-hybrid library CCmax; settings: mean of both orientations
T35 chain: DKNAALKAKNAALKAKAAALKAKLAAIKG

APC3323-AA = target: T36, APC3323-AA; test: two-hybrid library CCmax; settings: mean of both orientations
T36 chain: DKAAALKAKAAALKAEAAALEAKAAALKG

APC9141-AA = target: T37, APC9141-AA; test: two-hybrid library CCmax; settings: mean of both orientations
T37 chain: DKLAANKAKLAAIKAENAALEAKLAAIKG

APC3265-AA = target: T38, APC3265-AA; test: two-hybrid library CCmax
T38 chain: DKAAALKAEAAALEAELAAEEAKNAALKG

APC3354-AA = target: T39, APC3354-AA; test: two-hybrid library CCmax; settings: mean of both orientations
T39 chain: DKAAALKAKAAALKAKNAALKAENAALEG

APC4336-AA = target: T40, APC4336-AA; test: two-hybrid library CCmax; settings: mean of both orientations
T40 chain: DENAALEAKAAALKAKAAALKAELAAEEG

APC7524-AA = target: T41, APC7524-AA; test: two-hybrid library CCmax; settings: mean of both orientations
T41 chain: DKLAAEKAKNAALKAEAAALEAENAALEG

APC9182-AA = target: T42, APC9182-AA; test: two-hybrid library CCmax; settings: mean of both orientations
T42 chain: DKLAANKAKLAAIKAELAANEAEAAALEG

APC9291-AA = target: T43, APC9291-AA; test: two-hybrid library CCmax; settings: mean of both orientations
T43 chain: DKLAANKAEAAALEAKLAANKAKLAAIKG

APC542-AA = target: T44, APC542-AA; test: two-hybrid library CCmax; settings: mean of both orientations
T44 chain: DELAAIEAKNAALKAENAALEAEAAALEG

APC4100-AA = target: T45, APC4100-AA; test: two-hybrid library CCmax; settings: mean of both orientations
T45 chain: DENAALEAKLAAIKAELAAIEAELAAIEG

APC5009-AA = target: T46, APC5009-AA; test: two-hybrid library CCmax; settings: mean of both orientations
T46 chain: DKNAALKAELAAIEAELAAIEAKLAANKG

APC6088-AA = target: T47, APC6088-AA; test: two-hybrid library CCmax; settings: mean of both orientations
T47 chain: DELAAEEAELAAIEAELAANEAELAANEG

APC8401-AA = target: T48, APC8401-AA; test: two-hybrid library CCmax; settings: mean of both orientations
T48 chain: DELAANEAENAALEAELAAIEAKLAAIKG

APC8516-AA = target: T49, APC8516-AA; test: two-hybrid library CCmax; settings: mean of both orientations
T49 chain: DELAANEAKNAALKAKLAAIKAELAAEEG

APC3881-AA = target: T50, APC3881-AA; test: two-hybrid library CCmax; settings: mean of both orientations
T50 chain: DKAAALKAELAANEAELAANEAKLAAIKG

APC9806-AA = target: T51, APC9806-AA; test: two-hybrid library CCmax; settings: mean of both orientations
T51 chain: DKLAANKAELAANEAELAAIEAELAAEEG

O9 = target: T52, O9; test: two-hybrid library CCNG1
T52 chain: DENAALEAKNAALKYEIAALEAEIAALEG

O8 = target: T53, O8; test: two-hybrid library CCNG1
T53 chain: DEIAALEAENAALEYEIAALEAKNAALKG

O7 = target: T54, O7; test: two-hybrid library CCNG1
T54 chain: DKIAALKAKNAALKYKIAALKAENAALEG

4H_GCN4, sequence (chain, as listed by the source): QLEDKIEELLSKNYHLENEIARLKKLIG

- interaction score (4H56-AA): -0.0342
- interaction score (4H688-AA): -0.941
- interaction score (4H963-AA): -1.41
- interaction score (GCN2_T): -2.14
- interaction score (4H_APH): -1.79
- interaction score (4H3493-AA; mean of both orientations): -2.08
- interaction score (4H376-AA): -1.06
- interaction score (4H406-AA): -1.21
- interaction score (4H_BCR): -1.88
- interaction score (4H_GCN4): -2.04
- interaction score (4H347-AA): -0.315
- interaction score (4H452-AA): -0.224
B1: 4H347-AA (peptide)
chain: DEIAALEAKIAALKAENAALKAENAALEG

- interaction score (O9-bS): -0.588
- interaction score (O7-bS): -0.489
- interaction score (O6-bS): -1.84
- interaction score (O8-bS): -1.78
B2: O6-bS (peptide)
chain: DKNSQLKQKISELKQENSELEWKISQLKQ

- interaction score (4H3410-AA): -1.09
- interaction score (4H797-AA): -1.57
- interaction score (4H688-AA): -1.36
- interaction score (4H3865-AA): -1.52
- interaction score (4H3395-AA): -1.66
- interaction score (4H963-AA): -2.17
- interaction score (4H570-AA): -1.34
- interaction score (4H458-AA): -1.53
- interaction score (4H745-AA): -1.6
- interaction score (4H909-AA): -1.66
- interaction score (4H891-AA): -1.56
- interaction score (4H629-AA): -1.4
- interaction score (4H3697-AA): -1.45
- interaction score (4H3493-AA; mean of both orientations): -1.77
- interaction score (4H850-AA): -1.85
- interaction score (4H710-AA): -1.49
- interaction score (4H3381-AA): 0.71
- interaction score (4H376-AA): -1.55
- interaction score (4H485-AA): -0.941
- interaction score (4H3590-AA): -1.02
- interaction score (4H406-AA): -1.15
- interaction score (4H536-AA): -1.65
- interaction score (4H930-AA): -1.38
- interaction score (4H3753-AA): -1.71
- interaction score (4H347-AA; mean of both orientations): -1.55
- interaction score (4H94-AA): -1.76
B3: 4H3381-AA (peptide)
chain: DKNAALEAKIAALEAKNAALEAKIAALEG

- interaction score (4H688-AA): -1.63
- interaction score (4H963-AA): -1.58
- interaction score (4H3493-AA): 0.972
- interaction score (4H376-AA): -1.47
- interaction score (4H406-AA): -1.82
B4: 4H3493-AA (peptide)
chain: DKNAALEAKNAALEAKIAALEAKIAALEG

- interaction score (APC5531-AA): -1.82
- interaction score (APC3323-AA): -1.79
- interaction score (APC9141-AA): -1.63
- interaction score (APC3265-AA): -1.08
- interaction score (APC3354-AA): -1.86
- interaction score (APC4336-AA): -1.54
- interaction score (APC7524-AA): -1.43
- interaction score (APC9182-AA): -1.78
- interaction score (APC9291-AA): -1.49
- interaction score (APC542-AA): -1.56
- interaction score (APC4100-AA): -1.05
- interaction score (APC5009-AA): -1.45
- interaction score (APC6088-AA): -1.89
- interaction score (APC8401-AA): -1.36
- interaction score (APC8516-AA): -1.33
- interaction score (APC3881-AA): -1.45
- interaction score (APC9806-AA): -1.38
B5: APC3265-AA (peptide)
chain: DKAAALKAEAAALEAELAAEEAKNAALKG

- interaction score (O9): -2.46
- interaction score (O8): 1.54
- interaction score (O7): -2.89
B6: O7 (peptide)
chain: DKIAALKAKNAALKYKIAALKAENAALEG
